Test system: mid c-Met expressing colorectal cancer xenograft model HT-29
Assay: In vivo anti-tumor activity, HT-29 xenograft
Parameters: species or system balb/c nude mice
Settings: single IV dose, toxin-matched 6 (DAR1), 3 (DAR2), 2 (DAR3), 1.5 (DAR4) mg/kg, FIG. 7A
Description: For the HT-29 model, tumor cell suspensions (3×10^6 cells in 0.1 ml PBS) were implanted subcutaneously into balb/c nude mice. When mean tumor volume reached ˜160 mm3, the animals were randomly assigned to groups (n=8 per group) and treated with a single IV dose of test articles as shown in Table 14.1. Dose levels of ADCs at different DARs were molar matched to toxin. Tumor volume and body weight were measured twice weekly with a study duration of 32 days.

B1: v17427-MCvcPABC-MMAE (conjugate, chains of the INN, looked up)
VH: QVQLVQSGAEVKKPGASVKVSCKASGYIFTAYTMHWVRQAPGQGLEWMGWIKPNNGLANYAQKFQGRVTMTRDTSISTAYMELSRLRSDDTAVYYCARSEITTEFDYWGQGTLVTVSS
VL: DIVMTQSPDSLAVSLGERATINCKSSESVDSYANSFLHWYQQKPGQPPKLLIYRASTRESGVPDRFSGSGSGTDFTLTISSLQAEDVAVYYCQQSKEDPLTFGGGTKVEIK
modifications: IgG, HetFc MC-vc-PABC-MMAE
For B1, the “tumor growth inhibition compared to vehicle” value was “did not significantly inhibit tumor growth”.
